We go through three molecules from PMC9169696 (ACS applied materials & interfaces, 2021).

Square brackets hold non-standard residues; d marks the D form. Ends that are not written are not given here.

B1: fluorescein-labeled Fet-A (natural protein, bovine, UniProt P12763 19-359, looked up)
chain: IPLDPVAGYKEPACDDPDTEQAALAAVDYINKHLPRGYKHTLNQIDSVKVWPRRPTGEVYDIEIDTLETTCHVLDPTPLANCSVRQQTQHAVEGDCDIHVLKQDGQFSVLFTKCDSSPDSAEDVRKLCPDCPLLAPLNDSRVVHAVEVALATFNAESNGSYLQLVEISRAQFVPLPVSVSVEFAVAATDCIAKEVVDPTKCNLLAEKQYGFCKGSVIQKALGGEDVRVTCTLFQTQPVIPQPQPDGAEAEAPSAVPDAAGPTPSAAGPPVASVVVGPSVVAVPLPLHRAHYDLRHTFSGVASVESSSGEAFHVGKTPIVGQPSIPGGPVRLCPGRIRYFKI
modifications: fluorescein (from NHS-fluorescein; sites not stated)
B2: fluorescein-labeled VN (natural protein, human, UniProt P04004 20-478, looked up)
chain: DQESCKGRCTEGFNVDKKCQCDELCSYYQSCCTDYTAECKPQVTRGDVFTMPEDEYTVYDDGEEKNNATVHEQVGGPSLTSDLQAQSKGNPEQTPVLKPEEEAPAPEVGASKPEGIDSRPETLHPGRPQPPAEEELCSGKPFDAFTDLKNGSLFAFRGQYCYELDEKAVRPGYPKLIRDVWGIEGPIDAAFTRINCQGKTYLFKGSQYWRFEDGVLDPDYPRNISDGFDGIPDNVDAALALPAHSYSGRERVYFFKGKQYWEYQFQHQPSQEECEGSSLSAVFEHFAMMQRDSWEDIFELLFWGRTSAGTRQPQFISRDWHGVPGQVDAAMAGRIYISGMAPRPSLAKKQRFRHRNRKGYRSQRGHSRGRNQNSRRPSRATWLSLFSSEESNLGANNYDDYRMDWLVPATCEPIQSVFFFSGDKYYRVNLRTRRVDTVDPPYPRSIAQYWLGCPAPGHL
modifications: fluorescein (from NHS-fluorescein; sites not stated)
B3: HLT2 peptide gel (peptide)
peptide: VLTKVKTKV[code p]PTKVEVKVLV-NH2

The test “HLT2 peptide gel” has as its target B3. The experiment in a line: depletion from the supernatant.
Test [1] addresses BSA fluorescein isothiocyanate conjugate (bovine, UniProt P02769 25-607, fluorescein isothiocyanate conjugate (sites not given)). Description: light absorption and fluorescence imaging of the gel.
A further test has as its target bovine serum albumin (bovine, UniProt P02769 25-607). The experiment in a line: affinity purification with mass spectrometry.

Chain of BSA fluorescein isothiocyanate conjugate (P02769 25-607): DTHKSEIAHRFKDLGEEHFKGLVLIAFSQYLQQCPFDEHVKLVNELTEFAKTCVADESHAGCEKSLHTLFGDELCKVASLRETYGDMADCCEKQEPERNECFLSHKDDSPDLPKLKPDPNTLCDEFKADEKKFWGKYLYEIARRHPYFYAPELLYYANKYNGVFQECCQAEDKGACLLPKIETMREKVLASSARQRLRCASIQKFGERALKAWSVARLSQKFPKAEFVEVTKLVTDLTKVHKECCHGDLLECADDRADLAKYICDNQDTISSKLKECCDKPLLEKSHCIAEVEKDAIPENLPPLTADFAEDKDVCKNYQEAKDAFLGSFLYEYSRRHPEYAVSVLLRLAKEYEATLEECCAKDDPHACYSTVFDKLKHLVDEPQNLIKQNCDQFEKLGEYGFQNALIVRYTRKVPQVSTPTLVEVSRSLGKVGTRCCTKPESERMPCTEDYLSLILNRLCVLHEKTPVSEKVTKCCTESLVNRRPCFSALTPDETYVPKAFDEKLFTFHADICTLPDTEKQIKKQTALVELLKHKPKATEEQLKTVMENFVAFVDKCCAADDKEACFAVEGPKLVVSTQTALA
Chain of bovine serum albumin (P02769 25-607): as above

Consider B1, for which, in the test with HLT2 peptide gel, the “concentration adsorbed with respect to total gel volume” value worked out at 6.8 mg/mL and the “percent of the added protein adsorbed” value was found to be 85%.
Taken in the same sequence, the figures for B2 were 0.1 mg/mL and 87%.
For B3, the binding result (in test [1]; with bovine serum albumin) was “binds” each time.
